Measured values as given in the supplement of paper PMC9876800.

System: peptide library, one residue held at a place counted from the S/T acceptor
Assay: relative phosphorylation of the sub-library (ratio to the mean residue at this position); human; higher = residue favoured
In short: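 Purified recombinant kinases were reacted in 384-well plates with biotinylated degenerate peptide sub-libraries, each having one residue fixed at one position around a central Ser/Thr. The reaction mix contained 50 μM peptide plus 50 μM ATP spiked with γ-32P-ATP and ran for 90 min under kinase-specific conditions. Relative sub-library phosphorylation, taken from densitometry of phosphorimaged streptavidin membrane spots, is a ratio to the mean residue at that position.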

GRK5, construct: Full length, sequence (P34947 whole entry, looked up): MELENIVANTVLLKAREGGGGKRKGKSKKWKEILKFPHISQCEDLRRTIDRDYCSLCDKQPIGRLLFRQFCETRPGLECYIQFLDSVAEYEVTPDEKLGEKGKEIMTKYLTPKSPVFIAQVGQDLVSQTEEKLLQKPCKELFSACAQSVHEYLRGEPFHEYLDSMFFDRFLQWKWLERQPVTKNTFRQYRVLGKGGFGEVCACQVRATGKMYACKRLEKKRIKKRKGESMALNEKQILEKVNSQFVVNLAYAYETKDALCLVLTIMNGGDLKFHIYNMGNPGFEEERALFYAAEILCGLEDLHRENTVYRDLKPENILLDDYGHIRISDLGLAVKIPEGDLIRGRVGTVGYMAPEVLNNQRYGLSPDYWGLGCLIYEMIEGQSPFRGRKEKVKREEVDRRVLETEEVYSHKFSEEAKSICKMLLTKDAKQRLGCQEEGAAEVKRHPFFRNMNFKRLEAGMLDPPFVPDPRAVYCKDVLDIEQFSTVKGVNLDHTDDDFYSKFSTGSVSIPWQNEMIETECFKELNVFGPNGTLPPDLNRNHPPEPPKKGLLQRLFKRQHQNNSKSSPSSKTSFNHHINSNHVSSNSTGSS
CDK10, construct: Full length, sequence (Q15131 whole entry, looked up): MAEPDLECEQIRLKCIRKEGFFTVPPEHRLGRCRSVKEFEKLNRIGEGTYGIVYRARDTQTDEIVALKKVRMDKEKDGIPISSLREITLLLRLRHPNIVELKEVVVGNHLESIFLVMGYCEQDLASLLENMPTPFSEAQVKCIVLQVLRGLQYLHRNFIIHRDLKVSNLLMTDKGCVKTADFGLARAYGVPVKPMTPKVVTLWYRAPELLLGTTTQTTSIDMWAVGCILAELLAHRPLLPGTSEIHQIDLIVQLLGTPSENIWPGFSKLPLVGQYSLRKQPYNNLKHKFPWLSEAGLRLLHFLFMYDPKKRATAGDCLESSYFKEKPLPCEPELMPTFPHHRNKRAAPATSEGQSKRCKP

GRK5, construct: Full length (from UniProt P34947)
relative phosphorylation
Conditions | at +1 | at +2 | at +3 | at +4 | at -1 | at -2 | at -3 | at -4 | at -5
A fixed | 0.822 | 1.35 | 0.828 | 0.969 | 0.728 | 0.802 | 0.852 | 1.03 | 1.06
D fixed | 0.996 | 1.03 | 1.73 | 1.58 | 1.08 | 0.951 | 1.27 | 1.28 | 1.27
E fixed | 2.19 | 0.721 | 1.96 | 1.25 | 0.863 | 1.01 | 1.19 | 1.15 | 1.05
F fixed | 0.966 | 0.879 | 1.06 | 0.823 | 0.867 | 1.67 | 0.85 | 0.912 | 0.967
G fixed | 0.768 | 1.06 | 0.998 | 0.976 | 0.694 | 0.932 | 1.02 | 1.08 | 1.16
H fixed | 0.895 | 0.953 | 1.05 | 0.964 | 1.7 | 0.88 | 1.17 | 0.932 | 1.03
I fixed | 1.01 | 1.15 | 0.61 | 0.762 | 0.732 | 0.735 | 0.828 | 0.863 | 0.892
K fixed | 0.804 | 0.947 | 0.767 | 1.04 | 0.909 | 0.871 | 0.788 | 0.831 | 0.861
L fixed | 0.81 | 0.735 | 0.717 | 0.662 | 0.874 | 0.765 | 0.707 | 0.891 | 0.82
M fixed | 1.04 | 0.841 | 0.724 | 0.723 | 0.829 | 0.738 | 0.792 | 0.887 | 0.817
N fixed | 0.888 | 0.905 | 0.721 | 0.911 | 1.19 | 0.889 | 1.04 | 0.984 | 0.94
P fixed | 0.564 | 0.73 | 0.997 | 1.48 | 0.986 | 0.838 | 0.977 | 1.19 | 1.02
Q fixed | 1.21 | 0.74 | 0.808 | 1.01 | 0.872 | 0.737 | 0.867 | 0.85 | 0.789
R fixed | 1.13 | 1.12 | 0.927 | 0.899 | 1.12 | 1.05 | 1.04 | 0.87 | 0.806
V fixed | 1.06 | 1.51 | 0.705 | 0.867 | 1.07 | 0.751 | 1.5 | 0.955 | 1.06
W fixed | 0.944 | 1.3 | 1.35 | 1.1 | 0.933 | 2.08 | 1.13 | 1.23 | 1.32
Y fixed | 0.898 | 1.03 | 1.06 | 0.982 | 1.55 | 1.3 | 0.969 | 1.08 | 1.13
pThr fixed | 2.07 | 0.82 | 1.27 | 2.47 | 0.587 | 1.43 | 2.65 | 1.75 | 1.36
pTyr fixed | 2.19 | 0.868 | 1.08 | 1.37 | 0.964 | 2.77 | 2.56 | 2.29 | 1.88

CDK10, construct: Full length (from UniProt Q15131)
relative phosphorylation
Conditions | at +1 | at +2 | at +3 | at +4 | at -1 | at -2 | at -3 | at -4 | at -5
A fixed | 0.232 | 0.641 | 0.676 | 0.671 | 0.931 | 0.896 | 0.838 | 0.851 | 0.845
D fixed | 0.124 | 0.342 | 0.305 | 0.505 | 0.378 | 0.311 | 0.302 | 0.355 | 0.357
E fixed | 0.115 | 0.297 | 0.26 | 0.337 | 0.231 | 0.244 | 0.276 | 0.361 | 0.293
F fixed | 0.303 | 0.554 | 0.721 | 0.643 | 0.669 | 0.667 | 0.635 | 0.782 | 1.02
G fixed | 1.3 | 0.952 | 0.795 | 1.09 | 1.56 | 0.715 | 1.01 | 0.955 | 1.05
H fixed | 0.235 | 1.22 | 1.23 | 1.37 | 0.915 | 0.821 | 1.11 | 1.13 | 1.08
I fixed | 0.282 | 0.598 | 0.67 | 0.655 | 0.284 | 0.724 | 0.722 | 0.652 | 0.713
K fixed | 0.397 | 3.05 | 1.66 | 2.1 | 2.08 | 1.64 | 1.66 | 2.23 | 2.24
L fixed | 0.296 | 0.683 | 0.66 | 0.661 | 0.787 | 1.15 | 0.78 | 0.658 | 0.78
M fixed | 0.32 | 0.572 | 0.618 | 0.638 | 1.01 | 1.06 | 0.776 | 0.831 | 0.757
N fixed | 0.247 | 0.864 | 0.852 | 0.868 | 0.786 | 0.753 | 0.749 | 0.841 | 0.741
P fixed | 11.8 | 0.782 | 1.13 | 1.02 | 1.58 | 2.09 | 0.88 | 1.08 | 0.97
Q fixed | 0.294 | 0.967 | 0.874 | 1.24 | 0.859 | 0.958 | 0.874 | 0.973 | 0.911
R fixed | 0.405 | 3.58 | 4.52 | 2.61 | 2.65 | 2.65 | 3.91 | 2.3 | 2.25
V fixed | 0.245 | 0.515 | 0.716 | 0.691 | 0.408 | 0.731 | 0.625 | 0.628 | 0.605
W fixed | 0.241 | 0.541 | 0.621 | 0.967 | 1.11 | 0.872 | 0.997 | 1.46 | 1.26
Y fixed | 0.209 | 0.843 | 0.686 | 0.938 | 0.77 | 0.727 | 0.86 | 0.918 | 1.12
pThr fixed | 0.506 | 0.924 | 0.88 | 0.879 | 0.602 | 0.737 | 0.853 | 0.941 | 0.789
pTyr fixed | 0.461 | 0.367 | 0.508 | 0.431 | 0.375 | 0.388 | 0.538 | 0.559 | 0.537

MKNK1, construct: Full length (D165-205) (from UniProt Q9BUB5)
relative phosphorylation
Conditions | at +1 | at +2 | at +3 | at +4 | at -1 | at -2 | at -3 | at -4 | at -5
A fixed | 0.571 | 0.643 | 0.663 | 0.758 | 0.958 | 0.862 | 0.744 | 0.882 | 1.25
D fixed | 0.289 | 0.373 | 0.434 | 0.925 | 0.355 | 0.324 | 0.281 | 0.361 | 0.43
E fixed | 0.603 | 0.351 | 0.429 | 0.903 | 0.342 | 0.279 | 0.315 | 0.37 | 0.404
F fixed | 1.41 | 0.677 | 0.771 | 0.706 | 0.395 | 0.433 | 0.392 | 0.676 | 0.727
G fixed | 0.464 | 0.534 | 1.49 | 0.967 | 1.12 | 0.736 | 1.22 | 1.3 | 0.945
H fixed | 0.892 | 1.83 | 1.23 | 1.13 | 0.897 | 0.748 | 1.04 | 1.12 | 0.866
I fixed | 1.05 | 0.875 | 0.597 | 0.687 | 0.304 | 0.372 | 0.286 | 0.625 | 1
K fixed | 1.04 | 1.03 | 2.18 | 1.82 | 3.23 | 2.45 | 3.62 | 2.16 | 1.58
L fixed | 0.991 | 0.907 | 1.01 | 0.722 | 0.602 | 0.519 | 0.394 | 0.751 | 1.2
M fixed | 1.86 | 0.997 | 0.886 | 0.805 | 0.619 | 0.395 | 0.494 | 0.784 | 0.97
N fixed | 0.651 | 0.817 | 0.725 | 1.12 | 0.905 | 1.03 | 0.96 | 1.07 | 0.872
P fixed | 0.345 | 0.387 | 0.806 | 1.3 | 1.87 | 0.55 | 1.4 | 1.28 | 1.25
Q fixed | 1.8 | 0.794 | 0.856 | 1.29 | 0.991 | 0.747 | 0.926 | 0.83 | 0.762
R fixed | 1.34 | 1.9 | 1.95 | 1.49 | 2.91 | 5.62 | 3.5 | 2.25 | 1.66
V fixed | 0.995 | 0.781 | 0.506 | 0.704 | 0.429 | 0.521 | 0.318 | 0.76 | 1.25
W fixed | 1.2 | 1.79 | 1.17 | 0.826 | 0.414 | 0.685 | 0.549 | 0.894 | 0.832
Y fixed | 1.49 | 2.32 | 1.3 | 0.845 | 0.655 | 0.725 | 0.557 | 0.891 | 1.01
pThr fixed | 0.668 | 0.629 | 0.564 | 1.11 | 0.278 | 0.387 | 0.511 | 0.639 | 0.677
pTyr fixed | 0.868 | 1.32 | 0.756 | 1.46 | 0.294 | 0.373 | 0.447 | 0.596 | 0.942
